Measurements from patent US20030143192A1 (Human Genome Sciences, published 2003).

T1: human CCR3 (human, UniProt P51677 1-355)
T1 construct: whole, on cells; also called chemokine receptor-3; hCCR3
T1 sequence (looked up): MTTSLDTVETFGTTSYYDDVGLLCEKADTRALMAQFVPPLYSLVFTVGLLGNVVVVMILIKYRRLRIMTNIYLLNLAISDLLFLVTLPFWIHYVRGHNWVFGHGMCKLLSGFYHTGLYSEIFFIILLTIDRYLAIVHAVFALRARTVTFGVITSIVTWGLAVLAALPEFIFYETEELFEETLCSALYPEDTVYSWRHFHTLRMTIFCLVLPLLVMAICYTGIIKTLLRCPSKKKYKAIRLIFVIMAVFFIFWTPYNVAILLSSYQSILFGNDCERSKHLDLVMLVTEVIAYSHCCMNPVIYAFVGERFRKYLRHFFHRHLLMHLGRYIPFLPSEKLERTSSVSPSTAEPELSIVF

T2: human D6 chemokine receptor (human, UniProt O00590 1-384)
T2 construct: whole, on cells
T2 sequence (looked up): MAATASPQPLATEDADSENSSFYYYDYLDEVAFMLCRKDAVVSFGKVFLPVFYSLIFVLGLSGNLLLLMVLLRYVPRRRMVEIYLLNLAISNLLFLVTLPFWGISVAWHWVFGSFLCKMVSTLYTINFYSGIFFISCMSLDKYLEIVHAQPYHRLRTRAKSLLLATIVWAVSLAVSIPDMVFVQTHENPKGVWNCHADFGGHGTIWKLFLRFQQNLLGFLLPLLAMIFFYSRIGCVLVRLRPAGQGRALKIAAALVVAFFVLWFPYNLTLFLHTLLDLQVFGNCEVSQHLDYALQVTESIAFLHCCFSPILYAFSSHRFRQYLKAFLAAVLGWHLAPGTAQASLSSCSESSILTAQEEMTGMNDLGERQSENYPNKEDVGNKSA


Columns and labels:
[1] = target: T1, human CCR3; test: displacement of 0.1 nM 125I-MCP4 from purified human eosinophils (CCR3)
Protocol: (§1) After washing with binding buffer containing 0.5M NaCl, the percentage of radio-iodinated ligand remaining bound was calculated compared to assays in which no unlabeled chemokine was added. Each point is the mean of three identical incubations and standard error is included. (C) 2×10⁵ purified eosinophils were incubated for 2 hrs at room temperature in azide-containing binding buffer with 45 nM ¹²⁵I-Met-Ckβ7* plus 500 nM of the various unlabeled chemokines indicated at the bottom of the graph. Cells were washed twice with PBS and remaining ¹²⁵I-Met-Ckβ7* bound was counted. Results are the mean of three identical incubations represented as a percentage of the binding seen in the absence of competitor, and standard error is included.
(§2) Eosinophil ¹²⁵I-Chemokine Binding Assay. 2×10⁵ purified eosinophils were placed in each well of a 96 well plate in binding buffer (1 mM CaCl₂, 5 mM MgCl₂, 0.5% BSA, 0.05% sodium azide, 50 mM Hepes (pH 7.5)). Iodinated chemokine (final concentration of 0.1 nM ¹²⁵I-eotaxin or ¹²⁵I-MCP4, specific activity 2200 Ci/mmol (NEN, Boston, Mass.)) was added in the absence or presence of unlabeled chemokines to a final volume of 100 μl. […] The plates were dried and counted after addition of 50 μl of liquid scintillant in each well. […] Cells were then washed twice with ice cold PBS and counted in a Beckman Gamma 5500B counter. […]

[2] = target: T1, human CCR3; test: displacement of 0.1 nM 125I-eotaxin from 2x10^5 purified human eosinophils (CCR3), 60 min at room temperature
Protocol: as §1, §2

[3] = target: T2, human D6 chemokine receptor; test: displacement of 125I-MIP1α in binding assays on CHO cells expressing D6 (not shown)
[4] = target: T1, human CCR3; test: homologous displacement of 0.1 nM 125I-eotaxin from purified human eosinophils (CCR3)
Protocol: as §1, §2

[5] = target: T1, human CCR3; test: displacement of 0.1 nM 125I-eotaxin from purified human eosinophils (CCR3)
Protocol: as §1, §2

[6] = target: T1, human CCR3; test: homologous displacement of 0.1 nM 125I-MCP4 from purified human eosinophils (CCR3)
Protocol: as §1, §2

Chain of eotaxin (P51671 24-97 limits assumed): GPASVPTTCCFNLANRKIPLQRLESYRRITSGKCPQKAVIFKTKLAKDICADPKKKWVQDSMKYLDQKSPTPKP

Binder | IC50 [1] [nM] | IC50 [2] [nM] | binding result [3] | IC50 [4] [nM] | IC50 [5] [nM] | IC50 [6] [nM]
Met-Ckβ7* (ligand, E. coli-produced modified form of Ckβ7/MIP4: signal peptide removed, N-terminal Ala of the mature protein replaced by Met, C-terminus LKLMPEA; also called Met-22-87-Met-Pro-Glu-Ala; hg00701-e2) MQVGTNKELCCLVYTSWQIPQKFIVDYSETSPQCPKPGVILLTKRGRQICADPNKKWVQKYISDLKLMPEA | ~5 | ~6 | no binding (tested: 700 nM) | – | – | –
eotaxin (ligand, also called human eotaxin) not shown | ~5 | – | – | ~10 | – | –
MCP4 (ligand, also called monocyte chemotactic protein-4; Ckβ-10) not shown | – | – | – | – | ~60 | ~25
